Residue numbers refer to the chain shown, from its start. Numbers in names are those of the source.
T1: PUF4 RNA-binding domain (Saccharomyces cerevisiae, UniProt P25339 537-888)
T1 sequence: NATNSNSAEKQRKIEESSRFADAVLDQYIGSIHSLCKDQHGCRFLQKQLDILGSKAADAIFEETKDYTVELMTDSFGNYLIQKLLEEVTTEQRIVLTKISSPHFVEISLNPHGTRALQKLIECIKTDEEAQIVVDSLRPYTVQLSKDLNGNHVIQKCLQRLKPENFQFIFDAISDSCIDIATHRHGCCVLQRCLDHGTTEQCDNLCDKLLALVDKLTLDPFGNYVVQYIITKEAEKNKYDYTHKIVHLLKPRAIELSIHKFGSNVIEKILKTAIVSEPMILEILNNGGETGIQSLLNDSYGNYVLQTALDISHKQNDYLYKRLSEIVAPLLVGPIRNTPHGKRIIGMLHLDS

B1: Ic_S2_P4E.1_K4.1_C4.1_H4.1_A4.1_[T5A]_[A6T]_[T7C]_F4.1_[A9G]_T4.1 (ssRNA)
RNA: UUUGAUUAAUAUGAUAUCGUUCUUUCUUGUAAUCUGUUCUUUCUCGAUAUCAUAUUAAUCUUU
B2: Ic_S2_P4E.1_K4.1_C4.1_H4.1_A4.1_[T5A]_[A6T]_F4.1_[T8C]_[A9C]_T4.1 (ssRNA)
RNA: B1 RNA with C34U, U35C, G36C
B3: Ic_S2_P4E.1_K4.1_C4.1_H4.1_A4.1_[T5A]_[A6T]_[T7A]_F4.1_T4.1 (ssRNA)
RNA: B1 RNA with C34A, G36A
B4: Ic_S2_P4E.1_K4.1_C4.1_H4.1_A4.1_[A6G]_[T7G]_F4.1_[T8C]_[A9T]_T4.1 (ssRNA)
RNA: B1 RNA with A32U, U33G, C34G, U35C, G36U
B5: Ic_S2_P4E.1_K4.1_C4.1_H4.1_A4.1_[T5A]_[T7A]_F4.1_[T8C]_[A9C]_T4.1 (ssRNA)
RNA: B1 RNA with U33A, C34A, U35C, G36C
B6: Ic_S2_P4E.1_K4.1_C4.1_H4.1_A4.1_[T5A]_[A6T]_[T7G]_F4.1_[T8C]_[A9C]_T4.1 (ssRNA)
RNA: B1 RNA with C34G, U35C, G36C
B7: Ic_S2_P4E.1_K4.1_C4.1_H4.1_A4.1_[T5A]_[A6T]_[T7C]_F4.1_[T8C]_[A9C]_T4.1 (ssRNA)
RNA: B1 RNA with U35C, G36C
B8: Ic_S2_P4E.1_K4.1_C4.1_H4.1_A4.1_[T5A]_[A6C]_F4.1_[T8G]_[A9T]_T4.1 (ssRNA)
RNA: B1 RNA with U33C, C34U, U35G, G36U
B9: Ic_S2_P4E.1_K4.1_C4.1_H4.1_A4.1_[T5A]_[T7C]_F4.1_[T8C]_[A9T]_T4.1 (ssRNA)
RNA: B1 RNA with U33A, U35C, G36U
B10: Ic_S2_P4E.1_K4.1_C4.1_H4.1_A4.1_[T5A]_[A6T]_[T7C]_F4.1_[T8G]_[A9C]_T4.1 (ssRNA)
RNA: B1 RNA with U35G, G36C
B11: Ic_S2_P4E.1_K4.1_C4.1_H4.1_A4.1_[T5A]_[A6T]_[T7C]_F4.1_[T8G]_[A9G]_T4.1 (ssRNA)
RNA: B1 RNA with U35G
B12: Ic_S2_P4E.1_K4.1_C4.1_H4.1_A4.1_[T5A]_[T7C]_F4.1_[T8A]_[A9C]_T4.1 (ssRNA)
RNA: B1 RNA with U33A, U35A, G36C
B13: Ic_S2_P4E.1_K4.1_C4.1_H4.1_A4.1_[A6G]_[T7C]_F4.1_[T8G]_[A9G]_T4.1 (ssRNA)
RNA: B1 RNA with A32U, U33G, U35G
B14: Ic_S2_P4E.1_K4.1_C4.1_H4.1_A4.1_[T5A]_[A6T]_F4.1_[T8A]_[A9T]_T4.1 (ssRNA)
RNA: B1 RNA with C34U, U35A, G36U
B15: Ic_S2_P4E.1_K4.1_C4.1_H4.1_A4.1_[T5A]_[A6T]_[T7A]_F4.1_[A9G]_T4.1 (ssRNA)
RNA: B1 RNA with C34A
B16: Ic_S2_P4E.1_K4.1_C4.1_H4.1_A4.1_[T5A]_[A6T]_[T7A]_F4.1_[T8A]_[A9T]_T4.1 (ssRNA)
RNA: B1 RNA with C34A, U35A, G36U
B17: Ic_S2_P4E.1_K4.1_C4.1_H4.1_A4.1_[T5A]_[A6T]_F4.1_[T8G]_[A9T]_T4.1 (ssRNA)
RNA: B1 RNA with C34U, U35G, G36U
B18: Ic_S2_P4E.1_K4.1_C4.1_H4.1_A4.1_[T5A]_[A6T]_F4.1_[A9C]_T4.1 (ssRNA)
RNA: B1 RNA with C34U, G36C
B19: Ic_S2_P4E.1_K4.1_C4.1_H4.1_A4.1_[T5A]_[A6T]_[T7C]_F4.1_T4.1 (ssRNA)
RNA: B1 RNA with G36A
B20: Ic_S2_P4E.1_K4.1_C4.1_H4.1_A4.1_[T5A]_[T7C]_F4.1_[A9G]_T4.1 (ssRNA)
RNA: B1 RNA with U33A
B21: Ic_S2_P4E.1_K4.1_C4.1_H4.1_A4.1_[T5A]_[A6T]_[T7C]_F4.1_[T8A]_[A9G]_T4.1 (ssRNA)
RNA: B1 RNA with U35A
B22: Ic_S2_P4E.1_K4.1_C4.1_H4.1_A4.1_[T5A]_[A6T]_F4.1_[T8C]_[A9G]_T4.1 (ssRNA)
RNA: B1 RNA with C34U, U35C
B23: Ic_S2_P4E.1_K4.1_C4.1_H4.1_A4.1_[T5A]_[T7C]_F4.1_[A9C]_T4.1 (ssRNA)
RNA: B1 RNA with U33A, G36C
B24: Ic_S2_P4E.1_K4.1_C4.1_H4.1_A4.1_[T5A]_[A6T]_[T7A]_F4.1_[T8A]_[A9C]_T4.1 (ssRNA)
RNA: B1 RNA with C34A, U35A, G36C
B25: Ic_S2_P4E.1_K4.1_C4.1_H4.1_A4.1_[T5A]_[A6T]_[T7A]_F4.1_[T8C]_T4.1 (ssRNA)
RNA: B1 RNA with C34A, U35C, G36A
B26: Ic_S2_P4E.1_K4.1_C4.1_H4.1_A4.1_[T5A]_F4.1_[T8G]_[A9T]_T4.1 (ssRNA)
RNA: B1 RNA with U33A, C34U, U35G, G36U
B27: Ic_S2_P4E.1_K4.1_C4.1_H4.1_A4.1_[T5A]_[A6T]_[T7A]_F4.1_[T8G]_[A9C]_T4.1 (ssRNA)
RNA: B1 RNA with C34A, U35G, G36C
B28: Ib_S1_P3E.1_K3.1_C3.1_H3.1_A3.1_[T5A]_[A6T]_F3.1_T3.1 (ssRNA)
RNA: UCUCUUUGUAAUUAUCUCUU
B29: Ib_S1_P4E.1_K4.1_C4.1_H4.1_A4.1_F4.1_[T8G]_[A9C]_T4.1 (ssRNA)
RNA: UCUCUUUGUAUAUGCUCUCUU

target: T1, PUF4 RNA-binding domain; test: Mg; RNA-MaP; 20 mM Na-HEPES pH 7.4, 30 mM KOAc, 0.75 mM MgCl2, 0.1% Tween-20, 5% glycerol, 0.1 mg/mL BSA, 2 mM DTT; 25 C; 0.0125-409.6 nM protein; conditions: tags: N-His6-TEV cleaved; C-SNAP kept, Cy3B-labelled; label: tethered on chip by stalled RNA polymerase

Binder	Kd
B1	24.7 nM
B2	315 nM
B3	1.45 nM
B4	619 nM
B5	385 nM
B6	1040 nM
B7	454 nM
B8	61.3 nM
B9	242 nM
B10	629 nM
B11	1800 nM
B12	528 nM
B13	1310 nM
B14	36.2 nM
B15	11.1 nM
B16	94.7 nM
B17	117 nM
B18	44.7 nM
B19	2.23 nM
B20	18.3 nM
B21	1430 nM
B22	649 nM
B23	26.1 nM
B24	470 nM
B25	558 nM
B26	164 nM
B27	1120 nM
B28	155 nM
B29	26.8 nM

— publication PMC9352680, “A comprehensive thermodynamic model for RNA binding by the Saccharomyces cerevisiae Pumilio protein PUF4”
